Tests used:
[1] = target: cynomolgus monkey DLL4 extracellular domain (cynomolgus monkey); experiment: binding ELISA
[2] = target: cynomolgus monkey DLL4 extracellular domain (cynomolgus monkey); experiment: Biacore SPR
[3] = target: cynomolgus monkey DLL4 extracellular domain (cynomolgus monkey); experiment: Biacore SPR; head says nM, kd/ka gives M

B1: 1A11 chimeric antibody (antibody, V domains shown)
VH: EVQLVESGGGLVQPGRSMKLSCAASGFTFRNFPMAWVRQAPTRGLEWVATISSSDGTTYYRDSVKGRFTISRDNAKSTLYLQVNSLRSEDTATYYCSRGYYNSPFAYWGQGTLVTVSS
VL: DIQMTQSPASLSASLGETVTIECRASEDIYSNLAWYQQKPGNSPQLLIFDTNNLADGVPSRFSGSGSGTQSSLKINSLQSEDVASYFCQQYNNYPPTFGGGTKLELKR
B1 showed an EC50 [1] of 330 pM.

B2: h1A11.A6 (antibody, V domains shown)
VH: EVQLVESGGGLVQPGGSLRLSCAASGFTFRHFPMAWVRQAPGKGLEWVATISSSDAWPSYRDSVKGRFTISRDNAKNSLYLQMNSLRAEDTAVYYCSRGYYNSPFAYWGQGTLVTVSS
VL: DIQMTQSPSSLSASVGDRVTITCRASEDIYSNLAWYQQKPGKAPKLLIYDTNNLADGVPSRFSGSGSGTDFTLTISSLQPEDFATYYCQQYNNYPPTFGQGTKLEIK
Binder B2 has a koff [2] of 2.1e-05 s⁻¹, a kon [2] of 171000 M⁻¹ s⁻¹ and a Kd [3] of 120 pM.

B3: h1A11.E12 (antibody, V domains shown)
VH: EVQLVESGGGLVQPGGSLRLSCAASGFTFRYFPMAWVRQAPGKGLEWVATISGSDEWPNYRDSVKGRFTISRDNAKNSLYLQMNSLRAEDTAVYYCARGYYNSPFAFWGQGTLVTVSS
VL: DIQMTQSPSSLSASVGDRVTITCRASQEIYRNLAWYQQKPGKSPKLLIFDTSVLADGVPSRFSGSGSGTDSTLTISSLQPEDFATYYCQQYTYYPPTFGQGTKLEIK
B3 showed a koff [2] of 3.84e-05 s⁻¹, a kon [2] of 137000 M⁻¹ s⁻¹ and a Kd [3] of 280 pM.

B4: h1A11.B5 (antibody, V domains shown)
VH: EVQLVESGGGLVQPGGSLRLSCAASGFTFRYFPMSWVRQAPGKGLEWVASISGSDGWASYRDSVKGRFTISRDNAKNSLYLQMNSLRAEDTAVYYCARGYYNSPFASWGQGTLVTVSS
VL: DIQMTQSPSSLSASVGDRVTITCRASQDIWNNLAWYQQKPGKSPKLLIFDTSYLADGVPSRFSGSGSGTDFTLTISSLQPEDFATYYCQQYDWYPPTFGQGTKLEIK
Binder B4 has a koff [2] of 0.000178 s⁻¹, a kon [2] of 117000 M⁻¹ s⁻¹ and a Kd [3] of 1500 pM.

B5: h1A11.C6 (antibody, V domains shown)
VH: EVQLVESGGGLVQPGGSLRLSCAASGFTFRNFPMAWVRQAPGKGLEWVATISSSDGWPTYRDSVKGRFTISRDNAKSSLYLQMNSLRAEDTAVYYCSRGYYNSPFAYWGQGTLVTVSS
VL: DIQMTQSPSSLSASVGDRVTITCRASEDIYSNLAWYQQKPGKAPKLLIYDTNNLADGVPSRFSGSGSGTDFTLTISSLQPEDFATYYCQQYNNYPPTFGQGTKLEIK
B5 showed a koff [2] of 3.12e-05 s⁻¹, a kon [2] of 171000 M⁻¹ s⁻¹ and a Kd [3] of 180 pM.

B6: h1A11.H2 (antibody, V domains shown)
VH: EVQLVESGGGLVQPGGSLRLSCAASGFTFGNFPMSWVRQAPGKGLEWVASISSSDSWATIGDSVKGRFTISRDNAKNSLYLQMNSLRAEDTAVYYCARGYYNSPFAFWGQGTLVTVSS
VL: DIQMTQSPSSLSASVGDRVTITCRASQEIYRNLAWYQQKPGKSPKLLIFDTSVLADGVPSRFSGSGSGTDSTLTISSLQPEDFATYYCQQYTYYPPTFGQGTKLEIK
With B6 the koff [2] was 4.6e-05 s⁻¹, the kon [2] was 131000 M⁻¹ s⁻¹ and the Kd [3] was 350 pM.

B7: h1A11.A2 (antibody, V domains shown)
VH: EVQLVESGGGLVQPGGSLRLSCAASGFTFSNFPMAWVRQAPGKGLEWVATISSSDGTTYYRDSVKGRFTISRDNAKNSLYLQMNSLRAEDTAVYYCARGYYNSPFAYWGQGTLVTVSS
VL: DIQMTQSPSSLSASVGDRVTITCRASQDIYINLAWYQQKPGKSPKLLIFDTNDLADGVPSRFSGSGSGTDFTLTISSLQPEDFATYYCQQYDYVPPTFGQGTKLEIK
Binder B7 has a koff [2] of 0.000527 s⁻¹, a kon [2] of 134000 M⁻¹ s⁻¹ and a Kd [3] of 3900 pM.

B8: h1A11.A8 (antibody, V domains shown)
VH: EVQLVESGGGLVQPGGSLRLSCAASGFTFGNFPMSWVRQAPGKGLEWVASISSSDSWATIGDSVKGRFTISRDNAKNSLYLQMNSLRAEDTAVYYCSRGYYNSPFAYWGQGTLVTVSS
VL: DIQMTQSPSSLSASVGDRVTITCRASEDIYSNLAWYQQKPGKAPKLLIYDTNNLADGVPSRFSGSGSGTDFTLTISSLQPEDFATYYCQQYNNYPPTFGQGTKLEIK
With B8 the koff [2] was 2.4e-05 s⁻¹, the kon [2] was 160000 M⁻¹ s⁻¹ and the Kd [3] was 150 pM.

B9: h1A11.A11 (antibody, V domains shown)
VH: EVQLVESGGGLVQPGGSLRLSCAASGFTFRHFPMAWVRQAPGKGLEWVATISSSDDWPNYRDSVKGRFTISRDNAKSSLYLQMNSLRAEDTAVYYCSRGYYNSPFAYWGQGTLVTVSS
VL: DIQMTQSPSSLSASVGDRVTITCRASEDIYSNLAWYQQKPGKAPKLLIYDTNNLADGVPSRFSGSGSGTDFTLTISSLQPEDFATYYCQQYNNYPPTFGQGTKLEIK
B9 gave a koff [2] of 3.35e-05 s⁻¹, a kon [2] of 170000 M⁻¹ s⁻¹ and a Kd [3] of 200 pM.

B10: h1A11.A7 (antibody, V domains shown)
VH: EVQLVESGGGLVQPGGSLRLSCAASGFTFSNFPMAWVRQAPGKGLEWVATISSSDGTTYYRDSVKGRFTISRDNAKNSLYLQMNSLRAEDTAVYYCARGYYNSPFAYWGQGTLVTVSS
VL: DIQMTQSPSSLSASVGDRVTITCRASQDIYINLAWYQQKPGKAPKLLIFDTSDLADGVPSRFSGSGSGTDFTLTISSLQPEDFATYYCQQYDYYPPTFGQGTKLEIK
With B10 the koff [2] was 0.00124 s⁻¹, the kon [2] was 158000 M⁻¹ s⁻¹ and the Kd [3] was 7800 pM.

B11: h1A11.A12 (antibody, V domains shown)
VH: EVQLVESGGGLVQPGGSLRLSCAASGFTFSNFPMAWVRQAPGKGLEWVATISSSDGTTYYRDSVKGRFTISRDNAKNSLYLQMNSLRAEDTAVYYCARGYYNSPFAYWGQGTLVTVSS
VL: DIQMTQSPSSLSASVGDRVTITCRASQDIYYNLAWYQQKPGKSPKLLIFDTSSLADGVPSRFSGSGSGTDFTLTISSLQPEDFATYFCQQYDWYPPTFGQGTKLEIK
B11 gave a koff [2] of 0.00162 s⁻¹, a kon [2] of 158000 M⁻¹ s⁻¹ and a Kd [3] of 10000 pM.

B12: h1A11.F5 (antibody, V domains shown)
VH: EVQLVESGGGLVQPGGSLRLSCAASGFTFRHFPMAWVRQAPGKGLEWVATISSSDAWPSYRDSVKGRFTISRDNAKNSLYLQMNSLRAEDTAVYYCARGYYNSPFAYWGQGTLVTVSS
VL: DIQMTQSPSSLSASVGDRVTITCRASQEIYRNLAWYQQKPGKSPKLLIFDTSVLADGVPSRFSGSGSGTDSTLTISSLQPEDFATYYCQQYTYYPPTFGQGTKLEIK
B12 gave a koff [2] of 2e-05 s⁻¹, a kon [2] of 118000 M⁻¹ s⁻¹ and a Kd [3] of 170 pM.

B13: h1A11.G3 (antibody, V domains shown)
VH: EVQLVESGGGLVQPGGSLRLSCAASGFTFRYFPMSWVRQAPGKGLEWVASISGSDGWASYRDSVKGRFTISRDNAKNSLYLQMNSLRAEDTAVYYCARGYYNSPFAYWGQGTLVTVSS
VL: DIQMTQSPSSLSASVGDRVTITCRASQEIYRNLAWYQQKPGKSPKLLIFDTSVLADGVPSRFSGSGSGTDSTLTISSLQPEDFATYYCQQYTYYPPTFGQGTKLEIK
With B13 the koff [2] was 1.73e-05 s⁻¹, the kon [2] was 99000 M⁻¹ s⁻¹ and the Kd [3] was 170 pM.

B14: h1A11.B4 (antibody, V domains shown)
VH: EVQLVESGGGLVQPGGSLRLSCAASGFTFSNFPMAWVRQAPGKGLEWVATISSSDGTTYYRDSVKGRFTISRDNAKNSLYLQMNSLRAEDTAVYYCARGYYNSPFAYWGQGTLVTVSS
VL: DIQMTQSPSSLSASVGDRVTITCRASQDIYYNLAWYQQKPGKAPKLLIFDTNILADGVPSRFSGSGSGTDFTLTISSLQPEDFATYFCQQYDYVPPTFGQGTKLEIK
In the case of B14, the koff [2] is reported as 0.00099 s⁻¹, the kon [2] is reported as 143000 M⁻¹ s⁻¹ and the Kd [3] is reported as 6900 pM.
